Article PMC5406781, “Myxococcus xanthus DK1622 Coordinates Expressions of the Duplicate groEL and Single groES Genes for Synergistic Functions of GroELs and GroES” (Frontiers in Microbiology, 2017)

Biological target: the molecule itself
Assay: native gel or EMSA; native PAGE (no SDS or mercaptoethanol, run in ice-water) of extracts of E. coli BL21(DE3) cells expressing GroEL1, GroEL2 or GroES alone, or GroEL1/GroEL2 co-expressed with GroES

Protein	stoichiometry N
Myxococcus xanthus DK1622 GroES without His-tag (natural protein, UniProt Q1D2S2 1-96, looked up, printed Mw 10.7 kDa; construct named NoHis; also called Cpn10; GroES-NoHis; source: E. coli BL21(DE3), pET28a-GroES-NoHis, in cell extract) MKIRPLQDRLIVKRVAEENKTKGGLFIPDTAKEKPLEGKVIAVGNGKVQEDGKVRPLDIKAGDTILFSKYAGTEIKLDGEEHLILREEDVLGVIEK	7
Myxococcus xanthus DK1622 GroEL2 (natural protein, UniProt Q1D3Y5 1-547, looked up, printed Mw 58.1 kDa; no His-tag added; UniProt may number the two paralogues the other way round (groL1 for the stand-alone gene); also called Cpn60; chaperonin GroEL; source: E. coli BL21(DE3), pET22b (pET22b-GroEL2-NoHis); purified (100-kDa cut-off concentration, Superdex 200) for the pull-down, in cell extract for native PAGE; copies: 14) MAAKEIFFHQSAREAILRGVRTLSDAVAVTLGPKGRNVVIEKSFGSPTITKDGVTVAKEIDLENKFENMGAQMVKEVASKTSDKAGDGTTTATVLARAIYEEGLKLVAAGHSPMDLKRGIDKAVEVVVGELKSLSKPTADKKAITQVGTISANGDETIGAIIADAMEKVGKEGVITVEEAKGLETTLDVVEGMQFDRGYVSPYFVTNRERMEAVLEDPYILISEKKVSSMQDMIPLLEQVARSGKPLIIIADDIEGEALATLVVNKIRGVLNVCAVKAPGFGDRRKEMLQDIAVLTGGTVVSEDLGHKFETLTLTDLGRAKRVTVDKDNTTVVDGVGTKAAIEGRIKLIRTQIDSVTSDYDREKLQERLAKLVGGVAVINVGAATETEMKEKKARVEDALHATRAAVEEGIVPGGGVAYLRALPALEKLKPGGEQDFGVAIIRRALQEPLRKIASNAGVEGAVVINKVREGTGAFGYNARTEVYEDLEKAGVIDPTKVERTALQNAASVASLLLTTEAMVAERPKGKAKGGGAGAGMPDYGGDDMDY	14
Myxococcus xanthus DK1622 GroEL1 (natural protein, UniProt Q1D2S1 1-549, looked up, printed Mw 57.9 kDa; no His-tag added; UniProt may number the two paralogues the other way round (groL2 for the gene next to groES); also called Cpn60; chaperonin GroEL; source: E. coli BL21(DE3), pET22b (pET22b-GroEL1-NoHis); purified (100-kDa cut-off concentration, Superdex 200) for the pull-down, in cell extract for native PAGE; copies: 14) MAKDILFDVRAREAILRGVNILADAVKVTLGPKGRNVVIEKSFGSPTITKDGVTVAKEIELENKFENMGAQMVKEVASKTSDVAGDGTTTATVLAQAIFREGAKLVAAGHNPMDIKRGIDKAVGAIVAELKKLAKPTKDKKEIAQVGTISANGDETIGTIIADAMEKVGKEGVITVEEAKGLETTLDVVEGMQFDRGYLSPYFVTDPERMEAALNDALILINEKKISSMKDLLPILEQVARAGKPLLIIAEDIEGEALATLVVNKIRGVLNVCAVKAPGFGDRRKAMLEDIATLTGGRMIAEDLGIKLDTITLQDLGRAKRITVDKDNTTIVDGAGGQQEIEARVKQIRAQIEETSSDYDREKLQERLAKLVGGVAVINVGAATETEMKEKKARVEDALNATRAAVEEGVVPGGGVAYIRCLKALDGLQLSGGEKFGVDIIRRAVEEPLRQIVGNGGLEGSVVVNKVKESSGPFGFNAATGTYEDLLAAGVIDPAKVSRTALQNAASVSSLMLTTEAMVAERPKEEKDLPAGGGMGGMGGMGGMGGMGM	14
